The target in assay [1] is human corticotropin-releasing factor 2a (CRF2a receptor) (human), Q13324. The experiment in a line: cell-based or functional assay.
Assay [2] has as its target T1, CRF1R receptor (UniProt P34998 24-415, limits assumed).
T1 sequence (looked up): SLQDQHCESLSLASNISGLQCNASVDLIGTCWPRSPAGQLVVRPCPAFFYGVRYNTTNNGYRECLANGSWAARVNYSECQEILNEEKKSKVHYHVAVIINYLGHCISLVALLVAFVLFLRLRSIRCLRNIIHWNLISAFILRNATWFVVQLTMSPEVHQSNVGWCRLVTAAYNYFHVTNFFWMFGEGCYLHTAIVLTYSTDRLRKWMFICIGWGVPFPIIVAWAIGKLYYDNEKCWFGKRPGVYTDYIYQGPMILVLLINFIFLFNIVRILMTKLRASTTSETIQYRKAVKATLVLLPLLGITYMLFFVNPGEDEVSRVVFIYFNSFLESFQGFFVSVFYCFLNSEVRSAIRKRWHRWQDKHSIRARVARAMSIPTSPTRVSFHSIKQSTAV
The experiment in a line: cell-based or functional assay.

*1 amine or outer side, *2 acyl side, *3 side chain or, on linkers, in order; H or OH if unused. Where no end group is shown, it is not given here. Side-chain parts run from the residue outwards. [ ]: non-standard residue; d: D form. The star is where a group is joined. C18 diacid = O=C(O)CCCCCCCCCCCCCCCCC(=O)*; C16 diacid = O=C(O)CCCCCCCCCCCCCCC(=O)*; γGlu = O=C(O)[C@H](CCC(=O)[*:2])N[*:1]; NMeI = CC[C@H](C)[C@H](NC)C(=O)O; Ac6c = NC1(C(=O)O)CCCCC1; Ac5c = NC1(C(=O)O)CCCC1; Ac3c = NC1(C(=O)O)CC1; Aib = CC(C)(N)C(=O)O

Chain of human corticotropin-releasing factor 2a (CRF2a receptor) (human), Q13324 (Q13324 20-411): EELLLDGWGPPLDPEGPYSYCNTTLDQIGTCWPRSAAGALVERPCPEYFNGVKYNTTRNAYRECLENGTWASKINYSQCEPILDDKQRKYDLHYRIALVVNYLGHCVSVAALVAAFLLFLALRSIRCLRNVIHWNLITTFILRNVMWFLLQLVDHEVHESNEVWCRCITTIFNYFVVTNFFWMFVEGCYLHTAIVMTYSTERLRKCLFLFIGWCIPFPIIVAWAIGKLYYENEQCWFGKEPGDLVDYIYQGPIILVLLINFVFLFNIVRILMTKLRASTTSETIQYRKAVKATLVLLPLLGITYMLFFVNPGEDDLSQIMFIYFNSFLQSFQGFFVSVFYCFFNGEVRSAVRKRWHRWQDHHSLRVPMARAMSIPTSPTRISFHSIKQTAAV

B1: SEQ ID NO 136 (peptide)
peptide: Ac-IVLSLD[dV]PIKLK([γGlu-C18 diacid])KILLEQEKQKKQREQAETN[Ac3c]QILAQV-NH2
SMILES: CC[C@H](C)[C@H](NC(C)=O)C(=O)N[C@H](C(=O)N[C@@H](CC(C)C)C(=O)N[C@@H](CO)C(=O)N[C@@H](CC(C)C)C(=O)N[C@@H](CC(=O)O)C(=O)N[C@@H](C(=O)N1CCC[C@H]1C(=O)N[C@H](C(=O)N[C@@H](CCCCN)C(=O)N[C@@H](CC(C)C)C(=O)N[C@@H](CCCCNC(=O)CC[C@H](NC(=O)CCCCCCCCCCCCCCCCC(=O)O)C(=O)O)C(=O)N[C@@H](CCCCN)C(=O)N[C@H](C(=O)N[C@@H](CC(C)C)C(=O)N[C@@H](CC(C)C)C(=O)N[C@@H](CCC(=O)O)C(=O)N[C@@H](CCC(N)=O)C(=O)N[C@@H](CCC(=O)O)C(=O)N[C@@H](CCCCN)C(=O)N[C@@H](CCC(N)=O)C(=O)N[C@@H](CCCCN)C(=O)N[C@@H](CCCCN)C(=O)N[C@@H](CCC(N)=O)C(=O)N[C@@H](CCCNC(=N)N)C(=O)N[C@@H](CCC(=O)O)C(=O)N[C@@H](CCC(N)=O)C(=O)N[C@@H](C)C(=O)N[C@@H](CCC(=O)O)C(=O)N[C@H](C(=O)N[C@@H](CC(N)=O)C(=O)NC1(C(=O)N[C@@H](CCC(N)=O)C(=O)N[C@H](C(=O)N[C@@H](CC(C)C)C(=O)N[C@@H](C)C(=O)N[C@@H](CCC(N)=O)C(=O)N[C@H](C(N)=O)C(C)C)[C@@H](C)CC)CC1)[C@@H](C)O)[C@@H](C)CC)[C@@H](C)CC)C(C)C)C(C)C
As to B1, in assay [1], the EC50 [nM] (cAMP) turned out to be 0.16 nM. Besides, the “Emax (% I)” value in assay [2] was 5%.

B2: SEQ ID NO 135 (peptide)
peptide: Ac-IVLSLD[dV]PIKLK([γGlu-C18 diacid])KILLEQEKQKKQREQAETN[Ac5c]QILAQV-NH2
SMILES: CC[C@H](C)[C@H](NC(C)=O)C(=O)N[C@H](C(=O)N[C@@H](CC(C)C)C(=O)N[C@@H](CO)C(=O)N[C@@H](CC(C)C)C(=O)N[C@@H](CC(=O)O)C(=O)N[C@@H](C(=O)N1CCC[C@H]1C(=O)N[C@H](C(=O)N[C@@H](CCCCN)C(=O)N[C@@H](CC(C)C)C(=O)N[C@@H](CCCCNC(=O)CC[C@H](NC(=O)CCCCCCCCCCCCCCCCC(=O)O)C(=O)O)C(=O)N[C@@H](CCCCN)C(=O)N[C@H](C(=O)N[C@@H](CC(C)C)C(=O)N[C@@H](CC(C)C)C(=O)N[C@@H](CCC(=O)O)C(=O)N[C@@H](CCC(N)=O)C(=O)N[C@@H](CCC(=O)O)C(=O)N[C@@H](CCCCN)C(=O)N[C@@H](CCC(N)=O)C(=O)N[C@@H](CCCCN)C(=O)N[C@@H](CCCCN)C(=O)N[C@@H](CCC(N)=O)C(=O)N[C@@H](CCCNC(=N)N)C(=O)N[C@@H](CCC(=O)O)C(=O)N[C@@H](CCC(N)=O)C(=O)N[C@@H](C)C(=O)N[C@@H](CCC(=O)O)C(=O)N[C@H](C(=O)N[C@@H](CC(N)=O)C(=O)NC1(C(=O)N[C@@H](CCC(N)=O)C(=O)N[C@H](C(=O)N[C@@H](CC(C)C)C(=O)N[C@@H](C)C(=O)N[C@@H](CCC(N)=O)C(=O)N[C@H](C(N)=O)C(C)C)[C@@H](C)CC)CCCC1)[C@@H](C)O)[C@@H](C)CC)[C@@H](C)CC)C(C)C)C(C)C
In the case of B2, in assay [1], the EC50 [nM] (cAMP) was 0.19 nM. For the same molecule, the “Emax (% I)” value in assay [2] was 15%.

B3: SEQ ID NO 60 (peptide)
peptide: Ac-IVLSLD[dV]PIKLK([γGlu-C16 diacid])KILLEQEKQKKQREQAETN[Ac5c]QILAQV-NH2
SMILES: CC[C@H](C)[C@H](NC(C)=O)C(=O)N[C@H](C(=O)N[C@@H](CC(C)C)C(=O)N[C@@H](CO)C(=O)N[C@@H](CC(C)C)C(=O)N[C@@H](CC(=O)O)C(=O)N[C@@H](C(=O)N1CCC[C@H]1C(=O)N[C@H](C(=O)N[C@@H](CCCCN)C(=O)N[C@@H](CC(C)C)C(=O)N[C@@H](CCCCNC(=O)CC[C@H](NC(=O)CCCCCCCCCCCCCCC(=O)O)C(=O)O)C(=O)N[C@@H](CCCCN)C(=O)N[C@H](C(=O)N[C@@H](CC(C)C)C(=O)N[C@@H](CC(C)C)C(=O)N[C@@H](CCC(=O)O)C(=O)N[C@@H](CCC(N)=O)C(=O)N[C@@H](CCC(=O)O)C(=O)N[C@@H](CCCCN)C(=O)N[C@@H](CCC(N)=O)C(=O)N[C@@H](CCCCN)C(=O)N[C@@H](CCCCN)C(=O)N[C@@H](CCC(N)=O)C(=O)N[C@@H](CCCNC(=N)N)C(=O)N[C@@H](CCC(=O)O)C(=O)N[C@@H](CCC(N)=O)C(=O)N[C@@H](C)C(=O)N[C@@H](CCC(=O)O)C(=O)N[C@H](C(=O)N[C@@H](CC(N)=O)C(=O)NC1(C(=O)N[C@@H](CCC(N)=O)C(=O)N[C@H](C(=O)N[C@@H](CC(C)C)C(=O)N[C@@H](C)C(=O)N[C@@H](CCC(N)=O)C(=O)N[C@H](C(N)=O)C(C)C)[C@@H](C)CC)CCCC1)[C@@H](C)O)[C@@H](C)CC)[C@@H](C)CC)C(C)C)C(C)C
In assay [1], B3 returned an EC50 [nM] (cAMP) of 0.34 nM. In addition, the “Emax (% I)” value in assay [2] turned out to be 5%.

B4: SEQ ID NO 74 (peptide)
peptide: [NMeI]VLSLD[dV]PIKLK([γGlu-C16 diacid])KILLEQEKQKAQREQAETN[Aib]QILAQV-NH2
modifications: N-terminus assumed
SMILES: CC[C@H](C)[C@H](NC)C(=O)N[C@H](C(=O)N[C@@H](CC(C)C)C(=O)N[C@@H](CO)C(=O)N[C@@H](CC(C)C)C(=O)N[C@@H](CC(=O)O)C(=O)N[C@@H](C(=O)N1CCC[C@H]1C(=O)N[C@H](C(=O)N[C@@H](CCCCN)C(=O)N[C@@H](CC(C)C)C(=O)N[C@@H](CCCCNC(=O)CC[C@H](NC(=O)CCCCCCCCCCCCCCC(=O)O)C(=O)O)C(=O)N[C@@H](CCCCN)C(=O)N[C@H](C(=O)N[C@@H](CC(C)C)C(=O)N[C@@H](CC(C)C)C(=O)N[C@@H](CCC(=O)O)C(=O)N[C@@H](CCC(N)=O)C(=O)N[C@@H](CCC(=O)O)C(=O)N[C@@H](CCCCN)C(=O)N[C@@H](CCC(N)=O)C(=O)N[C@@H](CCCCN)C(=O)N[C@@H](C)C(=O)N[C@@H](CCC(N)=O)C(=O)N[C@@H](CCCNC(=N)N)C(=O)N[C@@H](CCC(=O)O)C(=O)N[C@@H](CCC(N)=O)C(=O)N[C@@H](C)C(=O)N[C@@H](CCC(=O)O)C(=O)N[C@H](C(=O)N[C@@H](CC(N)=O)C(=O)NC(C)(C)C(=O)N[C@@H](CCC(N)=O)C(=O)N[C@H](C(=O)N[C@@H](CC(C)C)C(=O)N[C@@H](C)C(=O)N[C@@H](CCC(N)=O)C(=O)N[C@H](C(N)=O)C(C)C)[C@@H](C)CC)[C@@H](C)O)[C@@H](C)CC)[C@@H](C)CC)C(C)C)C(C)C
B4: the EC50 [nM] (cAMP) in assay [1] came to 0.15 nM. Also, the “Emax (% I)” value in assay [2] stood at 7%.

B5: SEQ ID NO 134 (peptide)
peptide: Ac-IVLSLD[dV]PIKLK([γGlu-C18 diacid])KILLEQEKQKKQREQAETN[Ac6c]QILAQV-NH2
SMILES: CC[C@H](C)[C@H](NC(C)=O)C(=O)N[C@H](C(=O)N[C@@H](CC(C)C)C(=O)N[C@@H](CO)C(=O)N[C@@H](CC(C)C)C(=O)N[C@@H](CC(=O)O)C(=O)N[C@@H](C(=O)N1CCC[C@H]1C(=O)N[C@H](C(=O)N[C@@H](CCCCN)C(=O)N[C@@H](CC(C)C)C(=O)N[C@@H](CCCCNC(=O)CC[C@H](NC(=O)CCCCCCCCCCCCCCCCC(=O)O)C(=O)O)C(=O)N[C@@H](CCCCN)C(=O)N[C@H](C(=O)N[C@@H](CC(C)C)C(=O)N[C@@H](CC(C)C)C(=O)N[C@@H](CCC(=O)O)C(=O)N[C@@H](CCC(N)=O)C(=O)N[C@@H](CCC(=O)O)C(=O)N[C@@H](CCCCN)C(=O)N[C@@H](CCC(N)=O)C(=O)N[C@@H](CCCCN)C(=O)N[C@@H](CCCCN)C(=O)N[C@@H](CCC(N)=O)C(=O)N[C@@H](CCCNC(=N)N)C(=O)N[C@@H](CCC(=O)O)C(=O)N[C@@H](CCC(N)=O)C(=O)N[C@@H](C)C(=O)N[C@@H](CCC(=O)O)C(=O)N[C@H](C(=O)N[C@@H](CC(N)=O)C(=O)NC1(C(=O)N[C@@H](CCC(N)=O)C(=O)N[C@H](C(=O)N[C@@H](CC(C)C)C(=O)N[C@@H](C)C(=O)N[C@@H](CCC(N)=O)C(=O)N[C@H](C(N)=O)C(C)C)[C@@H](C)CC)CCCCC1)[C@@H](C)O)[C@@H](C)CC)[C@@H](C)CC)C(C)C)C(C)C
The molecule B5 had an EC50 [nM] (cAMP) in assay [1] of 0.5 nM. Besides, in assay [2], the “Emax (% I)” value was determined as 10%.

B6: SEQ ID NO 61 (peptide)
peptide: Ac-IVLSLD[dV]PIKLK([γGlu-C16 diacid])KILLEQEKQKKQREQAETN[Ac3c]QILAQV-NH2
SMILES: CC[C@H](C)[C@H](NC(C)=O)C(=O)N[C@H](C(=O)N[C@@H](CC(C)C)C(=O)N[C@@H](CO)C(=O)N[C@@H](CC(C)C)C(=O)N[C@@H](CC(=O)O)C(=O)N[C@@H](C(=O)N1CCC[C@H]1C(=O)N[C@H](C(=O)N[C@@H](CCCCN)C(=O)N[C@@H](CC(C)C)C(=O)N[C@@H](CCCCNC(=O)CC[C@H](NC(=O)CCCCCCCCCCCCCCC(=O)O)C(=O)O)C(=O)N[C@@H](CCCCN)C(=O)N[C@H](C(=O)N[C@@H](CC(C)C)C(=O)N[C@@H](CC(C)C)C(=O)N[C@@H](CCC(=O)O)C(=O)N[C@@H](CCC(N)=O)C(=O)N[C@@H](CCC(=O)O)C(=O)N[C@@H](CCCCN)C(=O)N[C@@H](CCC(N)=O)C(=O)N[C@@H](CCCCN)C(=O)N[C@@H](CCCCN)C(=O)N[C@@H](CCC(N)=O)C(=O)N[C@@H](CCCNC(=N)N)C(=O)N[C@@H](CCC(=O)O)C(=O)N[C@@H](CCC(N)=O)C(=O)N[C@@H](C)C(=O)N[C@@H](CCC(=O)O)C(=O)N[C@H](C(=O)N[C@@H](CC(N)=O)C(=O)NC1(C(=O)N[C@@H](CCC(N)=O)C(=O)N[C@H](C(=O)N[C@@H](CC(C)C)C(=O)N[C@@H](C)C(=O)N[C@@H](CCC(N)=O)C(=O)N[C@H](C(N)=O)C(C)C)[C@@H](C)CC)CC1)[C@@H](C)O)[C@@H](C)CC)[C@@H](C)CC)C(C)C)C(C)C
Molecule B6 came in with an EC50 [nM] (cAMP) in assay [1] of 0.36 nM. In addition, in assay [2], the “Emax (% I)” value stood at 3%.

Values taken from US20260001928A1 (CORTERIA PHARMACEUTICALS, priority 2022, published 2026).
